Laboratory results reported in US7183387 (Genentech, dated 2007).

Tests used:
[1] = molecular target: T1, human FcγRIIIA-Phe158 α subunit extracellular domain-His6-GST fusion (human, UniProt P08637 17-208); assay: hexamer ELISA
T1 construct: extracellular domain; also called FcγRIIIA-F158; CD16; not shown: glutathione S transferase (GST)

[2] = molecular target: T2, human FcγRIIA-Arg131 α subunit extracellular domain-His6-GST fusion (human, UniProt P12318 34-217); assay: hexamer ELISA
T2 construct: extracellular domain; also called FcγRIIA-R131; not shown: glutathione S transferase (GST)
T2 sequence: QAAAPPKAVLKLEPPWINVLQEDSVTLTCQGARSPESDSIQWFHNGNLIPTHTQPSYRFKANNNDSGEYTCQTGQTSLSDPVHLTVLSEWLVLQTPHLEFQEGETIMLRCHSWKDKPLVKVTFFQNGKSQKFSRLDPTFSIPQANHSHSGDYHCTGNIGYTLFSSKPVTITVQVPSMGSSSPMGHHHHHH

[3] = molecular target: T3, human FcγRIIIA-F158 α subunit extracellular domain-6His-GST fusion (human, UniProt P08637 17-208); assay: ELISA, IgG:IgE hexamers on receptor-GST
T3 construct: also called FcγRIIIA-Phe158; not shown: glutathione S-transferase (GST)
T3 sequence (P08637 other isoform, or with tags, fused parts or gaps, form in doubt): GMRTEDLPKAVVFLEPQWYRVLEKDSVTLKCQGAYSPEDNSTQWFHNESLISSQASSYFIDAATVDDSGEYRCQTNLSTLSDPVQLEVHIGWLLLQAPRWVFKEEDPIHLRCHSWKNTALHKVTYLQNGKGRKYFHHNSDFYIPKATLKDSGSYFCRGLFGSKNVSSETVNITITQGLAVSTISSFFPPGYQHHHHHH

[4] = molecular target: T4, human FcγRIIB α subunit extracellular domain-6His-GST fusion (human, UniProt P31994 43-217); assay: ELISA, IgG:IgE hexamers on receptor-GST
T4 construct: not shown: glutathione S-transferase (GST)
T4 sequence: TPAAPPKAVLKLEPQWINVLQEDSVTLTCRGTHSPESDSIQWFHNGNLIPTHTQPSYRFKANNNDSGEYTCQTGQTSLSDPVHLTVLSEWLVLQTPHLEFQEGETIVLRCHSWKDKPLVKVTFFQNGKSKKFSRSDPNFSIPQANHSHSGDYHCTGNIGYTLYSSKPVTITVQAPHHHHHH

[5] = molecular target: T5, human FcγRIIA-R131 α subunit extracellular domain-6His-GST fusion (human, UniProt P12318 34-217); assay: ELISA, IgG:IgE hexamers on receptor-GST
T5 construct: also called FcγRIIA-Arg131; not shown: glutathione S-transferase (GST)
T5 sequence: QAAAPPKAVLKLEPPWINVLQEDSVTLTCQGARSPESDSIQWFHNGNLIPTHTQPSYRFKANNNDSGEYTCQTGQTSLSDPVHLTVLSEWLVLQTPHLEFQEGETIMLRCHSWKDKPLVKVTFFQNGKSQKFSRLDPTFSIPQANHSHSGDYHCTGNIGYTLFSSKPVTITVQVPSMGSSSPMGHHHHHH

[6] = molecular target: T6, human FcγRI (FcγRIA) α subunit extracellular domain-His6-GST fusion (human, UniProt P12314 16-292); assay: monomeric IgG; ELISA on receptor-GST and THP-1 cells, averaged
T6 construct: Reported FcγRI values are the average of the plate ELISA on this fusion and of a flow cytometry assay on THP-1 cells; also called GST-FcγRIA; not shown: glutathione S-transferase (GST)
T6 sequence (P12314 other isoform, or with tags, fused parts or gaps, form in doubt): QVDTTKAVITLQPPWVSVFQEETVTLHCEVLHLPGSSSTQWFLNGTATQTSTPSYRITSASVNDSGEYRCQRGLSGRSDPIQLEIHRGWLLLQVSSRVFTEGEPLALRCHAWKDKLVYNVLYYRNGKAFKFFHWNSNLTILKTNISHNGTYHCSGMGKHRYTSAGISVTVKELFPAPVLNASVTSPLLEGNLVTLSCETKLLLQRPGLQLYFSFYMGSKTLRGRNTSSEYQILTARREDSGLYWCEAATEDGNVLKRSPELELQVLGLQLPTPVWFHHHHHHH

[7] = molecular target: T7, human FcγRIIIA-Phe158 α subunit extracellular domain-His6-GST fusion protein (human, UniProt P08637 17-208); assay: ELISA format, hexameric complex on FcγRIIIA-Phe158; separate assays run together with the Val158 assays
T7 construct: ELISA-format target; also called FcγRIIIA-F158; not shown: glutathione S-transferase (GST)

[8] = molecular target: T8, human FcγRIIIA-Val158 α subunit extracellular domain-His6-GST fusion protein (human, UniProt P08637 17-208); assay: ELISA format, hexameric complex on FcγRIIIA-Val158
T8 construct: ELISA-format target; also called FcγRIIIA-V158; not shown: glutathione S-transferase (GST)
T8 sequence (P08637 other isoform, or with tags, fused parts or gaps, form in doubt): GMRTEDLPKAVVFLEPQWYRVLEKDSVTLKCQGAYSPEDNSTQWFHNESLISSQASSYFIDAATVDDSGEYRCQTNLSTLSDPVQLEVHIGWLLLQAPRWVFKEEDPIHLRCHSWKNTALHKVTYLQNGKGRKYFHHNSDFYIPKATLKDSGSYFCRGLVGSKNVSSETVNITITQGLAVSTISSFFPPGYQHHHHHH

[9] = molecular target: T9, human FcγRIIIA-Phe158 with human γ-chain on stably transfected CHO cells (human, UniProt P08637 17-254; P30273 19-86); assay: flow cytometry, monomeric IgG on CHO cells with FcγRIIIA-Phe158 α- and γ-chains
T9 construct: whole, on cells; CHO cells stably transfected with the α- and γ-chains of the receptor; also called FcγRIIIA-Phe158 (cell-based assay)
T9 sequence (P08637 17-254, chain 1 of 2): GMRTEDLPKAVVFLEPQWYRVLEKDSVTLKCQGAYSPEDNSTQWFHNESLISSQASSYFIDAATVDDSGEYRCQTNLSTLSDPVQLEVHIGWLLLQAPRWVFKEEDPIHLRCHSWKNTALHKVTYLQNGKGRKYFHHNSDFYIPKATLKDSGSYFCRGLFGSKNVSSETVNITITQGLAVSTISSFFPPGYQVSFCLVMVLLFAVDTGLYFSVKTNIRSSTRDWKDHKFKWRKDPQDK
T9 sequence (P30273 19-86, chain 2 of 2): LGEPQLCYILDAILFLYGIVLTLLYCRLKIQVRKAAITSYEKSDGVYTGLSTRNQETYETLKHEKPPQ
Description: CHO cell transfection was carried out using Superfect (Qiagen) according to the manufacturer's instructions. […] Receptor expression levels were determined by staining with anti-FcγRIII monoclonal antibody 3G8 (Medarex). Binding of IgG1 variants was performed by adding monomeric IgG in staining buffer to 5×10^5 cells and incubating in 96 well round-bottom tissue culture plates (Costar, Cambridge, Mass.) at 4° C. for 30 min. Cells were washed three times with staining buffer and IgG binding detected by addition of 1:200 PE-F(ab')_2 fragment of goat anti-human IgG and incubation for 30 min at 4° C. After washing, immunofluorescence staining was analyzed on a FACScan flow cytometer using Cellquest software (Becton Dickinson). Dead cells were excluded from analysis by addition of 1 μg/ml propidium iodide.
For FcγRIIIA, the selected variants were assayed in the ELISA-format as well as on stable-transfected CHO cell lines expressing the γ-chains (FcγRIIIA-Phe158 or FcγRIIIA-Val158) with the associated human α-chain.

[10] = molecular target: T10, human FcγRIIIA-Val158 with human γ-chain on stably transfected CHO cells (human, UniProt P08637 17-254; P30273 19-86); assay: flow cytometry, monomeric IgG on CHO cells with FcγRIIIA-Val158 α- and γ-chains
T10 construct: whole, on cells; CHO cells stably transfected with the α- and γ-chains of the receptor; also called FcγRIIIA-Val158 (cell-based assay); FcγRIIIA-V158
T10 sequence (P08637 17-254 F176V, chain 1 of 2): as the sequence (P08637 17-254, chain 1 of 2) above, with F160V counted along it
T10 sequence (P30273 19-86, chain 2 of 2): as the sequence (P30273 19-86, chain 2 of 2) above

[11] = molecular target: T7, human FcγRIIIA-Phe158 α subunit …; assay: ELISA, IgG:IgE hexamer on coated FcγRIIIA-Phe158-GST; value carried over from Table 6

Binder	reduction in binding against native IgG1 [1]	reduction in binding against native IgG1 [2]	ratio to native IgG1 [3]	ratio to native IgG1 [4]	ratio to native IgG1 [5]	ratio to native IgG1 [6]	ratio of binding of the variant to that of native IgG1 [7]	ratio of binding of the variant to that of native IgG1 [8]	ratio of binding of the variant to that of native IgG1 [9]	ratio of binding of the variant to that of native IgG1 [10]	ratio of binding of the variant to that of native IgG1 [11]
anti-IgE E27 IgG1 Arg416 changed to Ala (antibody, named only by its position) heavy: not shown light: DIQLTQSPSSLSASVGDRVTITCRASKPVDGEGDSYLNWYQQKPGKAPKLLIYAASYLESGVPSRFSGSGSGTDFTLTISSLQPEDFATYYCQQSHEDPYTFGQGTKVEIKRTVAAPSVFIFPPSDEQLKSGTASVVCLLNNFYPREAKVQWKVDNALQSGNSQESVTEQDSKDSTYSLSSTLTLSKADYEKHKVYACEVTHQGLSSPVTKSFNRGEC	30%	30%	–	–	–	–	–	–	–	–	–
E27 IgG1 variant K290(307)E (antibody, also called IG2 77) heavy: not shown light: DIQLTQSPSSLSASVGDRVTITCRASKPVDGEGDSYLNWYQQKPGKAPKLLIYAASYLESGVPSRFSGSGSGTDFTLTISSLQPEDFATYYCQQSHEDPYTFGQGTKVEIKRTVAAPSVFIFPPSDEQLKSGTASVVCLLNNFYPREAKVQWKVDNALQSGNSQESVTEQDSKDSTYSLSSTLTLSKADYEKHKVYACEVTHQGLSSPVTKSFNRGEC	–	–	1.3	1.2	1.1	1.14	–	–	–	–	–
E27 IgG1 variant K290(307)R (antibody, also called IG2 78) heavy: not shown light: DIQLTQSPSSLSASVGDRVTITCRASKPVDGEGDSYLNWYQQKPGKAPKLLIYAASYLESGVPSRFSGSGSGTDFTLTISSLQPEDFATYYCQQSHEDPYTFGQGTKVEIKRTVAAPSVFIFPPSDEQLKSGTASVVCLLNNFYPREAKVQWKVDNALQSGNSQESVTEQDSKDSTYSLSSTLTLSKADYEKHKVYACEVTHQGLSSPVTKSFNRGEC	–	–	1.08	1.15	1.05	1.25	–	–	–	–	–
E27 IgG1 variant K334(353)H (antibody) heavy: not shown light: DIQLTQSPSSLSASVGDRVTITCRASKPVDGEGDSYLNWYQQKPGKAPKLLIYAASYLESGVPSRFSGSGSGTDFTLTISSLQPEDFATYYCQQSHEDPYTFGQGTKVEIKRTVAAPSVFIFPPSDEQLKSGTASVVCLLNNFYPREAKVQWKVDNALQSGNSQESVTEQDSKDSTYSLSSTLTLSKADYEKHKVYACEVTHQGLSSPVTKSFNRGEC	–	–	1.26	1.07	1.09	1.11	–	–	–	–	–
E27 IgG1 variant K334(353)W (antibody) heavy: not shown light: DIQLTQSPSSLSASVGDRVTITCRASKPVDGEGDSYLNWYQQKPGKAPKLLIYAASYLESGVPSRFSGSGSGTDFTLTISSLQPEDFATYYCQQSHEDPYTFGQGTKVEIKRTVAAPSVFIFPPSDEQLKSGTASVVCLLNNFYPREAKVQWKVDNALQSGNSQESVTEQDSKDSTYSLSSTLTLSKADYEKHKVYACEVTHQGLSSPVTKSFNRGEC	–	–	1.07	0.91	0.94	1.16	–	–	–	–	–
E27 IgG1 variant K334(353)Y (antibody) heavy: not shown light: DIQLTQSPSSLSASVGDRVTITCRASKPVDGEGDSYLNWYQQKPGKAPKLLIYAASYLESGVPSRFSGSGSGTDFTLTISSLQPEDFATYYCQQSHEDPYTFGQGTKVEIKRTVAAPSVFIFPPSDEQLKSGTASVVCLLNNFYPREAKVQWKVDNALQSGNSQESVTEQDSKDSTYSLSSTLTLSKADYEKHKVYACEVTHQGLSSPVTKSFNRGEC	–	–	1.31	1.05	1.08	1.15	–	–	–	–	–
E27 IgG1 variant K334(353)M (antibody, also called IG2 190) heavy: not shown light: DIQLTQSPSSLSASVGDRVTITCRASKPVDGEGDSYLNWYQQKPGKAPKLLIYAASYLESGVPSRFSGSGSGTDFTLTISSLQPEDFATYYCQQSHEDPYTFGQGTKVEIKRTVAAPSVFIFPPSDEQLKSGTASVVCLLNNFYPREAKVQWKVDNALQSGNSQESVTEQDSKDSTYSLSSTLTLSKADYEKHKVYACEVTHQGLSSPVTKSFNRGEC	–	–	0.49	0.93	0.99	1.18	–	–	–	–	–
anti-IgE E27 IgG1 variant Asp265Ala (antibody, also called D278A) heavy: not shown light: DIQLTQSPSSLSASVGDRVTITCRASKPVDGEGDSYLNWYQQKPGKAPKLLIYAASYLESGVPSRFSGSGSGTDFTLTISSLQPEDFATYYCQQSHEDPYTFGQGTKVEIKRTVAAPSVFIFPPSDEQLKSGTASVVCLLNNFYPREAKVQWKVDNALQSGNSQESVTEQDSKDSTYSLSSTLTLSKADYEKHKVYACEVTHQGLSSPVTKSFNRGEC	–	–	–	–	–	–	0.05 ratio (variant/native IgG1)	0.02 ratio (variant/native IgG1)	0.12 ratio (variant/native IgG1)	0.05 ratio (variant/native IgG1)	0.09 ratio (variant/native IgG1)
anti-IgE E27 IgG1 variant Glu333Ala (antibody, also called E352A) heavy: not shown light: DIQLTQSPSSLSASVGDRVTITCRASKPVDGEGDSYLNWYQQKPGKAPKLLIYAASYLESGVPSRFSGSGSGTDFTLTISSLQPEDFATYYCQQSHEDPYTFGQGTKVEIKRTVAAPSVFIFPPSDEQLKSGTASVVCLLNNFYPREAKVQWKVDNALQSGNSQESVTEQDSKDSTYSLSSTLTLSKADYEKHKVYACEVTHQGLSSPVTKSFNRGEC	–	–	–	–	–	–	1.13 ratio (variant/native IgG1)	1.06 ratio (variant/native IgG1)	1.42 ratio (variant/native IgG1)	1.08 ratio (variant/native IgG1)	1.27 ratio (variant/native IgG1)
anti-IgE E27 IgG1 variant Lys290Ala (antibody, also called K290(307)A; K307A) heavy: not shown light: DIQLTQSPSSLSASVGDRVTITCRASKPVDGEGDSYLNWYQQKPGKAPKLLIYAASYLESGVPSRFSGSGSGTDFTLTISSLQPEDFATYYCQQSHEDPYTFGQGTKVEIKRTVAAPSVFIFPPSDEQLKSGTASVVCLLNNFYPREAKVQWKVDNALQSGNSQESVTEQDSKDSTYSLSSTLTLSKADYEKHKVYACEVTHQGLSSPVTKSFNRGEC	–	–	–	–	–	–	1.15 ratio (variant/native IgG1)	1.01 ratio (variant/native IgG1)	1.61 ratio (variant/native IgG1)	0.89 ratio (variant/native IgG1)	1.31 ratio (variant/native IgG1)
anti-IgE E27 IgG1 variant Lys334Ala (antibody, also called K353A) heavy: not shown light: DIQLTQSPSSLSASVGDRVTITCRASKPVDGEGDSYLNWYQQKPGKAPKLLIYAASYLESGVPSRFSGSGSGTDFTLTISSLQPEDFATYYCQQSHEDPYTFGQGTKVEIKRTVAAPSVFIFPPSDEQLKSGTASVVCLLNNFYPREAKVQWKVDNALQSGNSQESVTEQDSKDSTYSLSSTLTLSKADYEKHKVYACEVTHQGLSSPVTKSFNRGEC	–	–	–	–	–	–	1.39 ratio (variant/native IgG1)	1.1 ratio (variant/native IgG1)	2.46 ratio (variant/native IgG1)	1.26 ratio (variant/native IgG1)	1.39 ratio (variant/native IgG1)
anti-IgE E27 IgG1 variant Pro331Ala (antibody, also called P331(350)A; IG2 65) heavy: not shown light: DIQLTQSPSSLSASVGDRVTITCRASKPVDGEGDSYLNWYQQKPGKAPKLLIYAASYLESGVPSRFSGSGSGTDFTLTISSLQPEDFATYYCQQSHEDPYTFGQGTKVEIKRTVAAPSVFIFPPSDEQLKSGTASVVCLLNNFYPREAKVQWKVDNALQSGNSQESVTEQDSKDSTYSLSSTLTLSKADYEKHKVYACEVTHQGLSSPVTKSFNRGEC	–	–	–	–	–	–	1 ratio (variant/native IgG1)	0.97 ratio (variant/native IgG1)	0.94 ratio (variant/native IgG1)	0.88 ratio (variant/native IgG1)	1.08 ratio (variant/native IgG1)
